From patent publication US20200270339A1 (CEPHALON, published 2020)
Changes are numbered by the printed parent chain. Names and notes keep the numbering of the source. Values joined by “and” are separate entries in the source; they are usually repeats but may differ in a detail not shown here. Equal entries are not always repeated.

Tests used:
[1] = biological target: T1, IL-15 Q101A co-expressed with IL-15Rα (human, UniProt P40933 49-162); experiment: SPR
T1 construct: Purified alanine scan construct, expressed in EXPI293F cells with human IL-15Rα
Experimental: (§1) All interactions were measured at 25° C. and the data collection rate was set to 10 Hz. Data from FC2-1 was used for analysis. The resultant sensorgrams were analysed by creating two custom report points, each calculated for a 5 s window starting either 10 s after injection of the sample (‘early binding’) or 10 s before the end of dissociation (‘late binding’). These values were subtracted from the values for the untransfected control and a relative dissociation rate was estimated by first, taking a ratio of these two custom report points (‘late binding’/‘early binding’) and then, taking the resultant values as a fraction of the value calculated for wild-type human IL-15 complexed with the IL-15 Receptor-alpha (data not shown).
(§2) A Protein A Sensor Chip (GE Healthcare) was used to capture Antibody 70a onto the second flow cell to a capture level of 150-200 RU. Purified IL-15 alanine scan constructs were diluted to 10 μg/mL in HBS-EP+ and then a 2-fold dilution series was made. Binding was measured by injection of 45 μL of each dilution at a flow rate of 30 μL/min across both flow cells and allowing 600 s of dissociation time. The chip surface was regenerated between cycles with a 10 sec pulse of 50 mM sodium hydroxide. The running buffer used was HBS-EP+ (GE Healthcare) All interactions were measured at 25° C. and the data collection rate was set to 10 Hz. Data from Fc2-1 was used for analysis and generated sensorgrams were fitted using a 1:1 Langmuir equation (using local Rmax fitting) to determine KD. […] Antibody 70a had low binding to mutated IL-15 with a Q108A substitution.

[2] = biological target: T2, IL-15 E98A co-expressed with IL-15Rα (human, UniProt P40933 49-162); experiment: SPR
T2 construct: Purified alanine scan construct, expressed in EXPI293F cells with human IL-15Rα
Experimental: as §1, §2

[3] = biological target: T3, IL-15 H105A co-expressed with IL-15Rα (human, UniProt P40933 49-162); experiment: SPR
T3 construct: Purified alanine scan construct, expressed in EXPI293F cells with human IL-15Rα
Experimental: as §1, §2

[4] = biological target: T4, human IL-15 complexed with the IL-15 Receptor-alpha (human, UniProt P40933 49-162); experiment: cell-based or functional assay
Target sequence in this assay (P40933 49-162 limits assumed, one chain of several): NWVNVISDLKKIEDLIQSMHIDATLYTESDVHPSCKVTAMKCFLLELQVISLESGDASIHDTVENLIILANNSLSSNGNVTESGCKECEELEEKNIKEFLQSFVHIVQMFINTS

[5] = biological target: T4, human IL-15 complexed with the IL-15 …; experiment: cell-based or functional assay; remark: listed apart in the source
[6] = biological target: T4, human IL-15 complexed with the IL-15 …; experiment: SPR
Target sequence in this assay (P40933 49-162 limits assumed, one chain of several): as above

[7] = biological target: T5, uncomplexed IL-15 Receptor α (human); experiment: SPR, antibody captured on Protein A chip
T5 construct: also called IL-15Rα; IL15Rα
T5 chain: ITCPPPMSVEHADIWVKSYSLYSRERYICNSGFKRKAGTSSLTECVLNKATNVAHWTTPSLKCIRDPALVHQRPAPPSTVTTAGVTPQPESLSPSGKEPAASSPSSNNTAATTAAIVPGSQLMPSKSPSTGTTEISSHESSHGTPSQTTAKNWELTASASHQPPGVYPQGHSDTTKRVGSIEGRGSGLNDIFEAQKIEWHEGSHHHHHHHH

IL-2 = IL-2 (UniProt P60568 21-153); experiment: SPR, antibody captured on Protein A chip
IL-4 = biological target: T6, IL-4 (UniProt P05112 25-153); experiment: SPR, antibody captured on Protein A chip
T6 sequence (looked up): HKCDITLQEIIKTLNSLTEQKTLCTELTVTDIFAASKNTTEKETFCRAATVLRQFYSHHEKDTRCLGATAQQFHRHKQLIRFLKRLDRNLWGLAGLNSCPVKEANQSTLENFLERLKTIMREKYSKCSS

IL-7 = biological target: T7, IL-7 (UniProt P13232 26-177); experiment: SPR, antibody captured on Protein A chip
T7 sequence (looked up): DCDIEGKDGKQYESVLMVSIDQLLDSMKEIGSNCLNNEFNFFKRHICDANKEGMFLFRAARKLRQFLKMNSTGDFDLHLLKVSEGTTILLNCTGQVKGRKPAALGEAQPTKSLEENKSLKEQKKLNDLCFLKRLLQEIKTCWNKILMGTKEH

IL-21 = IL-21 (UniProt Q9HBE4 30-162, limits assumed); experiment: SPR, antibody captured on Protein A chip
IL-9 = IL-9 (UniProt P15248 19-144); experiment: SPR, antibody captured on Protein A chip
[8] = biological target: T4, human IL-15 complexed with the IL-15 …; experiment: subsequent studies, method not restated; subsequent studies; average; analyte form and method not restated
Target sequence in this assay (P40933 49-162 limits assumed, one chain of several): as the sequence (P40933 49-162 limits assumed, one chain of several) above

[9] = biological target: T4, human IL-15 complexed with the IL-15 …; experiment: cell-based or functional assay; remark: listed apart in the source
Target sequence in this assay (P40933 49-162 limits assumed, one chain of several): as the sequence (P40933 49-162 limits assumed, one chain of several) above

[10] = biological target: T4, human IL-15 complexed with the IL-15 …; experiment: cell-based or functional assay; remark: listed apart in the source
Target sequence in this assay (P40933 49-162 limits assumed, one chain of several): as the sequence (P40933 49-162 limits assumed, one chain of several) above

[11] = biological target: T4, human IL-15 complexed with the IL-15 …; experiment: SPR; remark: listed apart in the source
Target sequence in this assay (P40933 49-162 limits assumed, one chain of several): as the sequence (P40933 49-162 limits assumed, one chain of several) above

[12] = biological target: T4, human IL-15 complexed with the IL-15 …; experiment: SPR; remark: listed apart in the source
[13] = biological target: T4, human IL-15 complexed with the IL-15 …; experiment: SPR; remark: listed apart in the source
[14] = biological target: T4, human IL-15 complexed with the IL-15 …; experiment: SPR; remark: listed apart in the source
[15] = biological target: T4, human IL-15 complexed with the IL-15 …; experiment: SPR; remark: listed apart in the source

Sequence of IL-21 (Q9HBE4 30-162 limits assumed): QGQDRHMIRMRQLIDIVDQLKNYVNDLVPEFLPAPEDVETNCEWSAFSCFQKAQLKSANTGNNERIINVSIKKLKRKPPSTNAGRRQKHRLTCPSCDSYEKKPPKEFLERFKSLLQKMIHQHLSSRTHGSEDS
Sequence of IL-2 (P60568 21-153 limits assumed): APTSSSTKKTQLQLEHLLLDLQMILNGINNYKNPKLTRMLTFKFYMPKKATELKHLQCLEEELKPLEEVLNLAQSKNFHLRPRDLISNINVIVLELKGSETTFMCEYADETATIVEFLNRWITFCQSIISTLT
Sequence of IL-9 (P15248 19-144 limits assumed): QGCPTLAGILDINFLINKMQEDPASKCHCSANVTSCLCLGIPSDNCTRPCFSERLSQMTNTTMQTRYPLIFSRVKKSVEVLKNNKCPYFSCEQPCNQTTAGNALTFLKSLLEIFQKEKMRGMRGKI
T1 sequence (P40933 49-162 Q149A limits assumed): as the sequence (P40933 49-162 limits assumed, one chain of several) above, with Q101A counted along it
T2 sequence (P40933 49-162 E146A limits assumed): as the sequence (P40933 49-162 limits assumed, one chain of several) above, with E98A counted along it
T3 sequence (P40933 49-162 H153A limits assumed): as the sequence (P40933 49-162 limits assumed, one chain of several) above, with H105A counted along it

B1: Antibody 70a (antibody, human IgG1, lambda)
heavy: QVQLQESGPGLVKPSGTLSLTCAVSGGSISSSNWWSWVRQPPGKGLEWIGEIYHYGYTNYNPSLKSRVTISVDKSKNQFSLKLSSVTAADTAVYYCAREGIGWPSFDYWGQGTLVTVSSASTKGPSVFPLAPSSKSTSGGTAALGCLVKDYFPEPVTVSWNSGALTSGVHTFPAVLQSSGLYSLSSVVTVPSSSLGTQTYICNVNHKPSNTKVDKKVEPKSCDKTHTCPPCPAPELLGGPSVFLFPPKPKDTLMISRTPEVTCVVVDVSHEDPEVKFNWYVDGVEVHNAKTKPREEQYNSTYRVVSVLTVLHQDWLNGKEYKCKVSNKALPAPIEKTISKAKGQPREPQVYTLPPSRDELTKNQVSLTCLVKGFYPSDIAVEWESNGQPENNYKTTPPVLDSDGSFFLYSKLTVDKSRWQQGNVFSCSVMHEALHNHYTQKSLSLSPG
light: SSELTQDPAASVALGQTVRITCQGDTLRSYYASWYQQKPGQAPILVIYGKNNRPSGIPDRFSGSSSGNTASLTITGAQAEDEADYYCNSRDLSGKNLVFGGGTKLTVLGQPKAAPSVTLFPPSSEELQANKATLVCLISDFYPGAVTVAWKADSSPVKAGVETTTPSKQSNNKYAASSYLSLTPEQWKSHRSYSCQVTHEGSTVEKTVAPTECS
notes: Heavy S54Y + N56Y + I82aS, light N30S + S93L
binding result [1]: binds
binding result [2]: binds
binding result [3]: binds
Max IC50 (pM), NK-92 proliferation assay [4]: 22 pM
Mean IC50 (pM), NK-92 proliferation assay [4]: 14.7 pM
Min IC50 (pM), NK-92 proliferation assay [4]: 10.2 pM
IC 50 (NK-92) in pM [5]: 18.2 pM
Kd [6]: 0.133 nM and 0.149 nM
koff [6]: 3.47e-05 s⁻¹ and 3.75e-05 s⁻¹
kon [6]: 252000 M⁻¹ s⁻¹ and 261000 M⁻¹ s⁻¹
binding result [7]: no binding (tested: 10 µg/mL)
binding result (IL-2): no binding (tested: 10 µg/mL)
binding result (IL-4): no binding (tested: 10 µg/mL)
binding result (IL-7): no binding (tested: 10 µg/mL)
binding result (IL-21): no binding (tested: 10 µg/mL)
binding result (IL-9): no binding (tested: 10 µg/mL)

B2: Antibody 70f (antibody, human IgG4 S228P, lambda)
heavy: QVQLQESGPGLVKPSGTLSLTCAVSGGSISSSNWWSWVRQPPGKGLEWIGEIYHYGYTNYNPSLKSRVTISVDKSKNQFSLKLSSVTAADTAVYYCAREGIGWPSFDYWGQGTLVTVSSASTKGPSVFPLAPCSRSTSESTAALGCLVKDYFPEPVTVSWNSGALTSGVHTFPAVLQSSGLYSLSSVVTVPSSSLGTKTYTCNVDHKPSNTKVDKRVESKYGPPCPPCPAPEFLGGPSVFLFPPKPKDTLYITREPEVTCVVVDVSQEDPEVQFNWYVDGVEVHNAKTKPREEQFNSTYRVVSVLTVLHQDWLNGKEYKCKVSNKGLPSSIEKTISKAKGQPREPQVYTLPPSQEEMTKNQVSLTCLVKGFYPSDIAVEWESNGQPENNYKTTPPVLDSDGSFFLYSRLTVDKSRWQEGNVFSCSVMHEALHNHYTQKSLSLSLG
light: B1 light
Kd [8]: 0.43 nM
Max IC50 (pM), NK-92 proliferation assay [4]: 29.8 pM
Mean IC50 (pM), NK-92 proliferation assay [4]: 14.6 pM
Min IC50 (pM), NK-92 proliferation assay [4]: 7.3 pM
Kd [6]: 0.171 nM and 0.173 nM
koff [6]: 4.44e-05 s⁻¹ and 4.32e-05 s⁻¹
kon [6]: 249000 M⁻¹ s⁻¹ and 260000 M⁻¹ s⁻¹
binding result [7]: no binding (tested: 10 µg/mL)
binding result (IL-2): no binding (tested: 10 µg/mL)
binding result (IL-4): no binding (tested: 10 µg/mL)
binding result (IL-7): no binding (tested: 10 µg/mL)
binding result (IL-21): no binding (tested: 10 µg/mL)
binding result (IL-9): no binding (tested: 10 µg/mL)

B3: Antibody 11 (antibody, V domains shown)
VH: QVQLQESGPGLVKPSGTLSLTCAVSGGSISSSNWWSWVRQPPGKGLEWIGEIYHYGYTNYNPSLKSRVTISVDKSKNQFSLKLISVTAADTAVYYCAREGIGWPSFDYWGQGTLVTVSS
VL: SSELTQDPAASVALGQTVRITCQGDTLRNYYASWYQQKPGQAPILVIYGKNNRPSGIPDRFSGSSSGNTASLTITGAQAEDEADYYCNSRDSSGKNLVFGGGTKLTVLG
NK-92 cell proliferation assay, potency (IC50) [9]: 0.0074 nM
fold improvement of IC50 in the NK-92 cell proliferation assay compared to Antibody 4 [10]: ≥ 10 fold
IC 50 (NK-92) in pM [5]: 6.3 pM

B4: VH_N058Q (antibody, V domains shown)
VH: B3 VH with Y55S, Y57N, N59Q
VL: SSELTQDPAASVALGQTVRITCQGDTLRNYYASWYQQKPGQAPILVIYGKNNRPSGIPDRFSGSSSGNTASLTITGAQAEDEADYYCNSRDSSGKNLVFGGGTKLTVL
Kd [11]: 0.765 nM

B5: VL_N030S (antibody, V domains shown)
VH: B3 VH with Y55S, Y57N
VL: B4 VL with N29S
notes: Antibody 4 with one substitution; also called ANTIBODY 51
Kd [12]: 2.41 nM

B6: VL_G050S (antibody, V domains shown)
VH: B3 VH with Y55S, Y57N
VL: B4 VL with G49S
notes: Antibody 4 with one substitution; also called ANTIBODY 29
Kd [13]: 1.58 nM

B7: VL_D092S (antibody, V domains shown)
VH: B3 VH with Y55S, Y57N
VL: B4 VL with D91S
notes: Antibody 4 with one substitution; also called ANTIBODY 16
Kd [14]: 2.15 nM

B8: VH_T057D (antibody, V domains shown)
VH: B3 VH with Y55S, Y57N, T58D
VL: B4 VL
notes: Antibody 4 with one substitution; also called ANTIBODY 25
Kd [11]: 0.64 nM

B9: VL_K051H (antibody, V domains shown)
VH: B3 VH with Y55S, Y57N
VL: B4 VL with K50H
notes: Antibody 4 with one substitution; also called ANTIBODY 31
Kd [15]: 0.73 nM
